Data on four molecules can be found in patent US20120322150A1, “Mechanism and Method for Regulating Glycogen Synthase Kinase 3 (GSK3)-Related Kinases” (CARNEGIE INSTITUTION OF WASHINGTON, priority 2009, published 2012).

Data set [1] deals with phospho-myelin basic protein. Kind of data set: In vitro phosphatase assay using phospho-myelin basic protein. It counts as biochemical. The procedure: In vitro phosphatase assay using phospho-myelin basic protein was performed according to manufacturer's protocol (New England Biolab. Beverly, Mass.). To examine tyrosine phosphatase activity of BSU 1, 20 mM p-nitrophenyl phosphate was incubated with MBP-BSD) in 50 uL of reaction buffer (50 mM Tris. pH 7.2, 20 mM NaCl, 5 mM DTT, 10 RIM MgCl2). The reaction was quenched by the addition of 100 uL of 0.5 M NaOH after incubation at 30° C. for 1 hr. p-Nitrophenol production was determined by measuring A405 (extinction coefficient, e=1.78×104 M-tCm J).

In data set [2] the test system is phosphorylated BZR1 and BZR2. Kind of data set: In vitro dephosphorylation of pre-phosphorylated BZR1 and BZR2. The data set is classed as biochemical, Arabidopsis. The settings on record: added after BIN2 and ATP were removed. How it is done: MBP-BZR1 and GST-BIN2 proteins were expressed and purified from E. coli and maltose or glutathione was removed from the proteins by ultrafiltration using Centricon 30 (Amicon Ultra, Millipore, Billerica, Mass.). To prepare fully phosphorylated BZR1 proteins, MBP-BZR1 protein was incubated with GST BIN2 as 1 to 1 ratio in the kinase buffer containing 100 μM ATP at 30° C. overnight. The protein mixture was incubated with glutathione Sepharose beads to remove GSTBIN2, then with amylose beads to purify MBP-pBZR1. Partially phosphorylated 32Plabeled pBZR1 and pBZR2 were prepared by the same method but MBP-BZR1 or MBP-BZR2 was incubated with GST BIN2 at a 15 to 1 ratio for 3 hrs in the presence of […] 32P-γATP. For dephosphorylation, GST-BSU1 was incubated with fully phosphorylated MBP-pBZR1 and 32P-MBP-pBZR1 or 32 P-MBP-pBZR2 for 12 or 16 Ins, […]

Another data set has as its target T1, BIN2 (Arabidopsis thaliana, UniProt Q39011).
T1 construct: made in house; host or cells: E. coli
T1 sequence (Q39011 1-380): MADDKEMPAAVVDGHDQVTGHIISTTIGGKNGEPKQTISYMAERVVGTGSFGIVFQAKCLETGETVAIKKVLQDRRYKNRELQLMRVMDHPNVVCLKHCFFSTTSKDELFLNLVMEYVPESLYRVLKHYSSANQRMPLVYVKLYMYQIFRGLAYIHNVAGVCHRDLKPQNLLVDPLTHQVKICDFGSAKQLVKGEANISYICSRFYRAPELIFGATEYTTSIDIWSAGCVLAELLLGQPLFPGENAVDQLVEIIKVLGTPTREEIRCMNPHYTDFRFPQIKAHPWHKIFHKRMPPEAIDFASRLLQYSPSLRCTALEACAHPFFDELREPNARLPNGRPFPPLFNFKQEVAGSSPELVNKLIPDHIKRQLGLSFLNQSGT
Nature of the data set: In vitro BIN2 inhibition assay (BIN2 phosphorylation of BZR1). The data set is classed as biochemical. How it is done: In vitro BIN2 inhibition assays were performed by 3 hrs co-incubation of MBP-BZR1, GST BIN2, GST BSU1 and ^32P-γATP or pre-incubation of GST-BIN2 with GST-BSU1 for various time followed by adding MBP-BZR1 and 32P-γATP. The examine activities of partial BSU1, N-terminal Kelch (1-363th amino acid) and C-terminal phosphatase (364-793th amino acid) region were used. GST, GST-BSU1, GSTBSU1-Ketch and GST-BSU1-phosphatase were pre-incubated with GST-BIN2 for 1 hr, and further incubated with MBP-BZR1 and ^32P-γATP for 3 hrs.
To test activities of BSU1-YFP, anti-GFP antibody-Protein A beads were used to immunoprecipitate BSU1-YFP from extracts of BSU1-YFP transgenic plants, and non-transgenic wild type plants were used as control. The beads were incubated with GST-BIN2 or GST bin2-1 for 1 hr, and then the beads were removed. The BSU1-treated GST-BIN2 or GST-bin2-1 was further incubated with MBP-BZR1 and ^32P-γATP for 3 hrs.

For another data set, the target named is T2, PP1 (Homo sapiens, UniProt P36873).
T2 construct: made in house; host or cells: E. coli
T2 sequence (P36873 whole entry): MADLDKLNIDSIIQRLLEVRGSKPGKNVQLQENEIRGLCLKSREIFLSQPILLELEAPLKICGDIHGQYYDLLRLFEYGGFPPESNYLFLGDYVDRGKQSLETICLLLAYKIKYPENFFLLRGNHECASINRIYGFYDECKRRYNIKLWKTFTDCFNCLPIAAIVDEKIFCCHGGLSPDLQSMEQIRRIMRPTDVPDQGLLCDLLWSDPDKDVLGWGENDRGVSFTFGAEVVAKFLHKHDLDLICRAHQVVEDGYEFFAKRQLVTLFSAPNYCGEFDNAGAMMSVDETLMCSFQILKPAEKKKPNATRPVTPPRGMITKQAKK
Nature of the data set: Inhibition of PP1 activity on BIN2. The data set is classed as biochemical, mammalian. The procedure:
It was next examined whether the mammalian homolog to BSU1, PP1, would dephosphorylate BIN2. A GST-tagged BIN2 was isolated from cells and incubated with PP1 purified from E. coli cells expressing the phosphatase.

B1: BSL1: closest homolog of BSU1 (SEQ ID NO: 28) (protein, listed as Arabidopsis thaliana)
chain: MGSKPWLHPAPQYKTLETFWDDEDDAPGPRCAHTLTAVAATKTHGPRLILFGGATAIEGGSSSVPGIRLAGVTNTVHSYDILTRKWTRLKPAGEPPSPRAAHAAAAVGTMVVFQGGIGPAGHSTDDLYVLDMTNDKFKWHRVVVQGDGPGPRYGHVMDLVSQRYLVTVTGNDGKRALSDAWALDTAQKPYVWQRLNPDGDRPSARMYASGSARSDGMFLLCGGRDTLGAPLGDAYGLLMHRNGQWEWTLAPGVAPSPRYQHAAVFVGARLHVSGGVLRGGRVIDAEASVAVLDTAAGVWLDRNGQVTSARGSKGQIDQDPSFELMRRCRHGAASVGIRIYVHGGLRGDVLLDDFLVAENSTFQSDISSPLLASDRTQQSSTPRFSYAARPPSGSEPSFSMSEGLSLDENSLEKLTEASAAEAEVASSVWRAAQLGAGTLDEEPSTSDASSPIVESTTDGTANEGDVRLHPRAVVVAKETVGSLGGMVRQLSLDQFQNESRRMVPMNNSDVPQPTKKFTRQKSPQGLHKKVIAALLRPRNWKPPGNRKFFLDSYEVGELCYAAEQIFMHEQTVLQLKAPIKVFGDLHGQFGDLMRLFDEYGFPSTAGDITYIDYLFLGDYVDRGQHSLETITLLLALKIEYPENVHLIRGNHEAADINALFGFRLECIERMGENDGIWAWTRFNQLFNYLPLAALIENKIICMHGGIGRSISTVEQIEKIERPITMDAGSLVLMDLLWSDPTENDSIEGLRPNARGPGLVTFGPDRVTEFCKRNKLQLIIRAHECVMDGFERFAQGQLITLFSATNYCGTANNAGAILVVGRGLVIVPKLIHPLPPPILSPENSPEHSGDDAWMQELNIQRPPTPTRGRPQPDFDRSSLAYI
For the molecule B1, the “phosphatase activity on phosphorylated myelin basic protein” value in data set [1] (protein purified from E.coli, metal ions 1 mM) is “showed manganese-dependent phosphatase activities”. Moreover, the “dephosphorylation of pre-phosphorylated BZR1 / BZR2” value in data set [2] was “do not dephosphorylate phosphorylated BZR1 and BZR2”. In the data set with BIN2 (co-incubated with BIN2 and BZR1, 32P-γATP, 3 hrs), the “BIN2 phosphorylation of BZR1, co-incubation” value is “inhibit B1N2 phosphorylation of BZR1 and BZR2”.

B2: PP2: PP1 inhibitor, protein phosphatase inhibitor 2 (protein, UniProt P41236 2-205, looked up)
Protein phosphatase inhibitor …: AASTASHRPIKGILKNKTSTTSSMVASAEQPRGNVDEELSKKSQKWDEMNILATYHPADKDYGLMKIDEPSTPYHSMMGDDEDACSDTEATEAMAPDILARKLAAAEGLEPKYRIQEQESSGEEDSDLSPEEREKKRQFEMKRKLHYNEGLNIKLARQLISKDLHDDDEDEEMLETADGESMNTEESNQGSTPSDQQQNKLRSS
Consider B2, for which the “enzymatic activity of PP1 on BIN2” value with PP1 is recorded as “inhibited the enzymatic activity of the PP1 phosphatase on BIN2”.

B3: BSU1-D5ION: mutant BSU1, Asp510 to Asn, with reduced phosphatase activity (protein, UniProt Q9LR78 1-793, looked up, variant D510N)
Serine/threonine-protein …: MAPDQSYQYPSPSYESIQTFYDTDEDWPGPRCGHTLTAVFVNNSHQLILFGGSTTAVANHNSSLPEISLDGVTNSVHSFDVLTRKWTRLNPIGDVPSPRACHAAALYGTLILIQGGIGPSGPSDGDVYMLDMTNNKWIKFLVGGETPSPRYGHVMDIAAQRWLVIFSGNNGNEILDDTWALDTRGPFSWDRLNPSGNQPSGRMYASGSSREDGIFLLCGGIDHSGVTLGDTYGLKMDSDNVWTPVPAVAPSPRYQHTAVFGGSKLHVIGGILNRARLIDGEAVVAVLDTETGEWVDTNQPETSASGANRQNQYQLMRRCHHAAASFGSHLYVHGGIREDVLLDDLLVAETSQSSSPEPEEDNPDNYMLLDDYLMDEPKPLSSEPEASSFIMRSTSEIAMDRLAEAHNLPTIENAFYDSAIEGYVPLQHGAETVGNRGGLVRTASLDQSTQDLHKKVISTLLRPKTWTPPANRDFFLSYLEVKHLCDEVEKIFMNEPTLLQLKVPIKVFGNIHGQYGDLMRLFHEYGHPSVEGDITHIDYLFLGDYVDRGQHSLEIIMLLFALKIEYPKNIHLIRGNHESLAMNRIYGFLTECEERMGESYGFEAWLKINQVFDYLPLAALLEKKVLCVHGGIGRAVTIEEIENIERPAFPDTGSMVLKDILWSDPTMNDTVLGIVDNARGEGVVSFGPDIVKAFLERNGLEMILRAHECVIDGFERFADGRLITVFSATNYCGTAQNAGAILVIGRDMVIYPKLIHPHPPPISSSEEDYTDKAWMQELNIEMPPTPARGESSE
Turning to B3, in data set [1] (phospho-myelin basic proteins as a substrate), the “phosphatase activity of the wild type protein” value is reported as “about 15%”.

B4: Kelch repeat domain: N-terminal Kelch (1-363th amino acid) region of BSU1 (protein)
chain: MAPDQSYQYPSPSYESIQTFYDTDEDWPGPRCGHTLTAVFVNNSHQLILFGGSTTAVANHNSSLPEISLDGVTNSVHSFDVLTRKWTRLNPIGDVPSPRACHAAALYGTLILIQGGIGPSGPSDGDVYMLDMTNNKWIKFLVGGETPSPRYGHVMDIAAQRWLVIFSGNNGNEILDDTWALDTRGPFSWDRLNPSGNQPSGRMYASGSSREDGIFLLCGGIDHSGVTLGDTYGLKMDSDNVWTPVPAVAPSPRYQHTAVFGGSKLHVIGGILNRARLIDGEAVVAVLDTETGEWVDTNQPETSASGANRQNQYQLMRRCHHAAASFGSHLYVHGGIREDVLLDDLLVAETSQSSSPEPEEDNP
modifications: left off: a dimerising Fc or GST
notes: N-terminal Kelch (1-363th amino acid) region of BSU1
For the molecule B4, in the data set with BIN2 (pre-incubated with BIN2 before adding BZR1), the “BIN2 phosphorylation of BZR1, pre-incubation” value is listed as “showed no effect”.
